Our source for the binding result and Kd values is PMC4192059 (Molecular microbiology, 2014).

The target in assay [1] is T1, EspG5 (M. tuberculosis), crystallization construct (M. tuberculosis H37Rv, UniProt O53943 1-300).
T1 sequence: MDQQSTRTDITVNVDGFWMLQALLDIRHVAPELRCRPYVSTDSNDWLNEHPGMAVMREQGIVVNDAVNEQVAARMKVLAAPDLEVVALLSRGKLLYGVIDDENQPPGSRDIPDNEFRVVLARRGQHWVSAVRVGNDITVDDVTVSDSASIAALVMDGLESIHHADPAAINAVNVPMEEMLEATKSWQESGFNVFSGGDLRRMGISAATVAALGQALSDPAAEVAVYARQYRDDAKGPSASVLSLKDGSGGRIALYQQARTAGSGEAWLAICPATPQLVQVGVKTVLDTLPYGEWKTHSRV
The assay can be described thus: crystal structure.

Assay [2] has as its target T2, EspG5 (M. tuberculosis), from His6-SUMO3-EspG5, tag cleaved (M. tuberculosis, UniProt O53943 1-300).
T2 sequence: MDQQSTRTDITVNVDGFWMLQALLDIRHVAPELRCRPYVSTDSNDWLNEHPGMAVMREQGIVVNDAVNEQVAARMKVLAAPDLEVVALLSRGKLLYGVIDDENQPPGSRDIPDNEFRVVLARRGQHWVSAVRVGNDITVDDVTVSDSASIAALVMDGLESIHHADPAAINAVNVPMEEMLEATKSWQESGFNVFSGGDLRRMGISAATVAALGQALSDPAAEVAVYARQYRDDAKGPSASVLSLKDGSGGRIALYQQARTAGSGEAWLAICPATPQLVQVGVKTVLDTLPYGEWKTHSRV
The experiment in a line: ITC.

B1: PPE41 (M. tuberculosis), chain of the crystallized complex (natural protein)
chain: MHFEAYPPEVNSANIYAGPGPDSMLAAARAWRSLDVEMTAVQRSFNRTLLSLMDAWAGPVVMQLMEAAKPFVRWLTDLCVQLSEVERQIHEIVRAYEWAHHDMVPLAQIYNNRAERQILIDNNALGQFTAQIADLDQEYDDFWDEDGEVMRDYRLRVSDALSKLTPWKAPPPIAHSTVLVAPVSPSTASSRTDT
In the case of B1, in assay [1], the binding result is “binds”.

B2: His6-PE25–PPE41 heterodimer (M. tuberculosis), wild type (complex)
chain 1: MSFVITNPEALTVAATEVRRIRDRAIQSDAQVAPMTTAVRPPAADLVSEKAATFLVEYARKYRQTIAAAAVVLEEFAHALTTGADKYATAEADNIKTFS
chain 2: MHFEAYPPEVNSANIYAGPGPDSMLAAARAWRSLDVEMTAVQRSFNRTLLSLMDAWAGPVVMQLMEAAKPFVRWLTDLCVQLSEVERQIHEIVRAYEWAHHDMVPLAQIYNNRAERQILIDNNALGQFTAQIADLDQEYDDFWDEDGEVMRDYRLRVSDALSKLTPWKAPPPIAHSTVLVAPVSPSTASSRTDT
B2 yielded a Kd in assay [2] of 48.1 nM.
